These results are taken from patent US11957762B2, “Immune tolerant and non-immune tolerant elastin-like recombinant peptides and methods of use” (University of Utah Research Foundation, priority 2015, dated 2024).

In one data set the test system is B3Z cells. Nature of the data set: B3Z CD8+ T cell hybridoma activation assay. It counts as cell-based. The note with it: for activation of B3Z cells: DC2.4 cells pre-incubated with antigen. The protocol: B3Z CD8+ T cell hybridoma activation assay. B3Z cells (a gift from N. Shastri) are a CD8+ T-cell hybridoma engineered to secrete β-galactosidase when their T-cell receptors are engaged with an […]:H2K^b complex.^(33) To do this assay, 1×10^5 DC2.4 cells/well were set in 96-well plates. OVA, […] peptide (SEQ ID NO: 22), and iTEP-pOVA NP (SEQ ID NO: 56) at indicated concentrations were loaded into the cell culture for 16 hours and then washed away. 1×10^5 B3Z cells/well were added to the DC2.4 cell culture and co-cultured with DC2.4 cells for 24 hours. The cells were washed with PBS before 100 μL of lysis buffer (PBS with 100 mM 2-mercaptoethanol, 9 mM MgCl2, 0.125% NP-40) together with 0.15 mM chlorophenol red β-galactoside were added into the wells. After the plates were incubated at 37° C. for 4 hours, the reaction was stopped with 50 μL/well of 15 mM EDTA and 300 mM glycine. The OD at 570 nm was measured and the OD at 630 nm was used as reference. The OD was used as an indicator as activation status of B3Z cells.
Activation of B3Z hybridoma (CD8+T) cells. This assay was done with a protocol described previously (Cho et al., J Drug Target, 2015; p 1-12).

Another data set relates to DC2.4 cells. Nature of the data set: Cellular uptake of iTEP-vaccine fusions by DCs. Format: cell-based, murine. As to the method: Fluorescent labeling of iTEP-vaccine fusions. For the flow cytometry study, the fusions were labeled with the amine-reactive coumarin, 7-diethylaminocoumarin-3-carboxylic acid, through succinimidyl ester to form blue-fluorescent bioconjugates. For the microscopy-based cellular uptake study and the cellular degradation study, the fusions were labeled with Alexa Fluo 488 5-SDP ester (Alexa-488) to form green-fluorescent bioconjugates. The reactions were performed based on the manufacturer's instructions (Molecular Probes by Life Technologies). Briefly, 10 mg of iTEPs were reacted with 1 mg of coumarin or 0.2 mg of Alexa-488 in 0.1 M sodium bicarbonate buffer, pH 8.3 at a final volume of 1 mL. The reaction was carried out with continuous stirring in the dark and at room temperature for 1.5 h. The protein-dye conjugates were purified using Amicon Ultra1-5 (10k) centrifugal filters (Millipore). The coumarin conjugate was measured for their absorbances of at 205 nm (A205) and 433 nm (A433, λmax for coumarin); the Alexa-488 conjugate was measured at 205 nm and 495 nm (A495, λmax for Alexa-488). The iTEP-vaccine fusion concentrations and the degree of labeling (DOL) were calculated based on these equations: […]
Cellular uptake of iTEP-vaccine fusions. […] The fluorescence of the cells was measured by flow cytometry (collecting 5×10^4 events per sample). […]

Data set [1] can be described thus: Response of NPs to reductants (DLS after GSH or DTT). The conditions noted are these: 16 hours, by number distribution. Format: physicochemical. The protocol: The next set of experiments tested whether disulfide bonds inside the new NP were reducible and if the NP structure was dissolvable in a reductive environment like cytosol (glutathione, GSH 1-10 mM) (Smith et al., Toxicol Appl Pharmacol, 1996; 140(1):1-12; Wu et al., J Nutr, 2004; 134(3):489-92). The new NP and the ST-NP were treated using two concentrations of GSH, at 37° C. overnight and then analyzed particle structure changes of both NPs by DLS. These concentrations mimic GSH concentrations in either cytoplasm (GSH 1-10 mM) or the extracellular (GSH 1-10 μM) environment (Smith et al., Toxicol Appl Pharmacol, 1996; 140(1):1-12; Cantin et al., Appl Physiol (1985), 1987, 63(1):152-7; Jones et al., Clin Chim Acta, 1998; 275(2):175-84). Both NPs were stable at 10 μM of GSH. The new NP lost its particle structure after being treated with 1 mM of GSH (Table 4). […] In contrast, the ST-NP, as a control, maintained its particle structure regardless of its incubation with any concentration of GSH. Similar results emerged when dithiothreitol (DTT) was used as the reductant except that the new iTEP-NP was not stable in 10 μM of DTT (Table 4). […] The new NP was named the reductive-environment dependable NP or RED-NP.

Data set [2] is described as follows: Critical micelle concentration by pyrene assay. It counts as physicochemical. The note with it: pyrene assay in PBS. As to the method: Measurement of critical micelle concentrations (CMCs) of iTEP-vaccine fusions by pyrene assay. The CMCs of iTEP-vaccine fusions (NPs) were measured through fluorescence spectra by using pyrene as a hydrophobic fluorescent probe as described previously with some adjustments (Ohyanagi et al., Jpn J Clin Oncol, 2011; 41(5); 718-22; Dreher et al., J Am Chem Soc, 2008; 130(2):687-94). Briefly, the fusions were serially 2×time diluted in PBS starting from 250 μM in 96-well black clear-bottom plates. The final volume for each dilution was 150 μL. Three μL of a stock solution of 30 μM pyrene in ethanol was added to each well and mixed well. Fluorescence of these samples were scanned using an Infinite M1000 PRO plate reader (Tecan Trading AG, Switzerland) with the setting: Ex: 334 nm with a slit of 10 nm, Em: ranging 360-400 nm with a slit of 2.5 nm. Four peaks were recorded for pyrene between 360-400 nm. The ratio of emission peak number 1 (I1; 370-373 nm) and emission peak number 3 (I3; 381-384 nm) of pyrene (I1/I3) was plotted as a function of iTEP concentration. The data points were fitted to a sigmoidal-dose response curve, and the CMC was defined as the inflection point of the curve.

B1: RED-NP: reductive-environment dependable NP, disulfide stabilized fusion iTEPB70-iTEPA28-(G8C)4-pOVA (SEQ ID NO: 61) (protein)
chain: GGAGVPGGAGVPGGAGVPGGAGVPGGAGVPGGAGVPGGAGVPGGAGVPGGAGVPGGAGVPGGAGVPGGAGVPGGAGVPGGAGVPGGAGVPGGAGVPGGAGVPGGAGVPGGAGVPGGAGVPGGAGVPGGAGVPGGAGVPGGAGVPGGAGVPGGAGVPGGAGVPGGAGVPGGAGVPGGAGVPGGAGVPGGAGVPGGAGVPGGAGVPGGAGVPGGAGVPGGAGVPGGAGVPGGAGVPGGAGVPGGAGVPGGAGVPGGAGVPGGAGVPGGAGVPGGAGVPGGAGVPGGAGVPGGAGVPGGAGVPGGAGVPGGAGVPGGAGVPGGAGVPGGAGVPGGAGVPGGAGVPGGAGVPGGAGVPGGAGVPGGAGVPGGAGVPGGAGVPGGAGVPGGAGVPGGAGVPGGAGVPGGAGVPGGAGVPGGAGVPGGGVLPGVGGVLPGVGGVLPGVGGVLPGVGGVLPGVGGVLPGVGGVLPGVGGVLPGVGGVLPGVGGVLPGVGGVLPGVGGVLPGVGGVLPGVGGVLPGVGGVLPGVGGVLPGVGGVLPGVGGVLPGVGGVLPGVGGVLPGVGGVLPGVGGVLPGVGGVLPGVGGVLPGVGGVLPGVGGVLPGVGGVLPGVGGVLPGVGGCGCGCGCGESIINFEKLTESIINFEKLTGG
On to B1, for which, in the data set on B3Z cells, the “activation of B3Z cells” value is recorded as “failed to activate B3Z cells as effectively as the MS-NP but, again, fared better than the ST-NP”. Moreover, in the data set on DC2.4 cells (fluorescence microscopy and flow cytometry), the “internalization to DCs” value is “as efficient as the ST-NP and more robust than the MS-NP”. For the same molecule, the “Hydrodynamic diameter (nm)” value in data set [1] (DTT 10 μM) was 8.75 ± 2.03 nm; in data set [1] (DTT 1000 μM), 6.43 ± 2.01 nm; in data set [1] (GSH 10 μM), 37.98 ± 6.72 (NP) nm; in data set [1] (GSH 1000 μM), 8.35 ± 1.04 nm; in data set [1] (no reductant (0 μM)), 47.11 ± 13.18 (NP) nm.

B2: ST-NP: stable NP of the fusion iTEPB70-iTEPA56-pOVA (SEQ ID NO: 60) (protein)
chain: GGAGVPGGAGVPGGAGVPGGAGVPGGAGVPGGAGVPGGAGVPGGAGVPGGAGVPGGAGVPGGAGVPGGAGVPGGAGVPGGAGVPGGAGVPGGAGVPGGAGVPGGAGVPGGAGVPGGAGVPGGAGVPGGAGVPGGAGVPGGAGVPGGAGVPGGAGVPGGAGVPGGAGVPGGAGVPGGAGVPGGAGVPGGAGVPGGAGVPGGAGVPGGAGVPGGAGVPGGAGVPGGAGVPGGAGVPGGAGVPGGAGVPGGAGVPGGAGVPGGAGVPGGAGVPGGAGVPGGAGVPGGAGVPGGAGVPGGAGVPGGAGVPGGAGVPGGAGVPGGAGVPGGAGVPGGAGVPGGAGVPGGAGVPGGAGVPGGAGVPGGAGVPGGAGVPGGAGVPGGAGVPGGAGVPGGAGVPGGAGVPGGAGVPGGAGVPGGAGVPGGGVLPGVGGVLPGVGGVLPGVGGVLPGVGGVLPGVGGVLPGVGGVLPGVGGVLPGVGGVLPGVGGVLPGVGGVLPGVGGVLPGVGGVLPGVGGVLPGVGGVLPGVGGVLPGVGGVLPGVGGVLPGVGGVLPGVGGVLPGVGGVLPGVGGVLPGVGGVLPGVGGVLPGVGGVLPGVGGVLPGVGGVLPGVGGVLPGVGGGGGGGGGCGGGGGGGGCGGGGGGGGCGGGGGGGGCGESIINFEKLTESIINFEKLTGG
Consider B2, for which the “activation of B3Z cells” value in the data set on B3Z cells is on record as “much less robust in activating B3Z cells than the MS-NP”. The “CMC (critical micelle concentration)” value in data set [2] was 23.94 µM. Further, the “uptake by DCs, times more than the MS-NP” value with DC2.4 cells (5 μM coumarin-labeled fusions, 4 h) is “two”. In addition, the “Hydrodynamic diameter (nm)” value was 52.56 ± 13.67 (NP) nm in data set [1] (DTT 10 μM); 53.10 ± 13.56 (NP) nm in data set [1] (DTT 1000 μM); 52.23 ± 13.59 (NP) nm in data set [1] (GSH 10 μM); 50 ± 13.62 (NP) nm in data set [1] (GSH 1000 μM); 54.82 ± 12.89 (NP) nm in data set [1] (no reductant (0 μM)).

B3: G(GAGVPG)70G(GVLPGVG)28G(ESIINFEKLT)2GG (protein)
chain: GGAGVPGGAGVPGGAGVPGGAGVPGGAGVPGGAGVPGGAGVPGGAGVPGGAGVPGGAGVPGGAGVPGGAGVPGGAGVPGGAGVPGGAGVPGGAGVPGGAGVPGGAGVPGGAGVPGGAGVPGGAGVPGGAGVPGGAGVPGGAGVPGGAGVPGGAGVPGGAGVPGGAGVPGGAGVPGGAGVPGGAGVPGGAGVPGGAGVPGGAGVPGGAGVPGGAGVPGGAGVPGGAGVPGGAGVPGGAGVPGGAGVPGGAGVPGGAGVPGGAGVPGGAGVPGGAGVPGGAGVPGGAGVPGGAGVPGGAGVPGGAGVPGGAGVPGGAGVPGGAGVPGGAGVPGGAGVPGGAGVPGGAGVPGGAGVPGGAGVPGGAGVPGGAGVPGGAGVPGGAGVPGGAGVPGGAGVPGGAGVPGGAGVPGGAGVPGGAGVPGGESIINFEKLTESIINFEKLTGG
In the case of B3, in the data set on B3Z cells, the “B3Z activity, fold more active than DC-treated B3Z cells” value is reported as 4.38 fold; the “B3Z activity, fold more active than OVA/DC-treated B3Z cells” value stood at 3.81 fold; the “B3Z activity, fold more active than iTEPB-pOVA/DC-treated B3Z cells” value amounted to 2.9 fold. In data set [2], the “CMC (critical micelle concentration)” value was found to be 120.6 µM.
